Positions count from the first letter of the chain named. Where two headings read alike, the source gives them in different places. Blank lines part the entries; values can stand above or below the binder they belong to.
Experiments:
mouse MSLN-His-Avi [1] = target: T1, mouse MSLN-His-Avi (mouse, UniProt Q61468 298-600, single biotin (BirA) in the biotinylated form); test: SPR (Biacore), mMSLN-His-Avi immobilised at 50 RU
T1 construct: Monomeric, made in HEK293-6E; also called mMSLN-His-Avi
T1 sequence: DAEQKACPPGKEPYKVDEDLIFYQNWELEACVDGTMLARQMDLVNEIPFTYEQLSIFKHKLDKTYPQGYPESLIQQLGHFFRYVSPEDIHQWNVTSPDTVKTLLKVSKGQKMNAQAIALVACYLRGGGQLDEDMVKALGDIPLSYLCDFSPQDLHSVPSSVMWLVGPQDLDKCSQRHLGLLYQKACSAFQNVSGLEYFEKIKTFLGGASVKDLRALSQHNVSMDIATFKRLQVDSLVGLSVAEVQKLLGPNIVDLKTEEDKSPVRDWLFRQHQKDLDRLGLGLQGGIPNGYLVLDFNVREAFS
Procedure: (§1) The procedure for binding to immobilised MSLN was similar to the method described in section 2.1.4 with mMSLN-His-Avi immobilised at 50 RU. To determine the affinity for soluble MSLN the mAb² were captured via anti-human Fc. Briefly, 25 μg/ml anti-human IgG (Fc) antibody (GE Healthcare, Human Antibody Capture Kit, BR100839) was coated on flow cells 1, 2, 3 and 4 of a Biacore sensor chip CM5 (GE Healthcare, BR100530) achieving a final response of approximately 750 RU. The mAb² clones, diluted in HBS-EP buffer (GE Healthcare, BR100188) at 50 nM, were injected individually on flows cell 2, 3 and 4 at 30 μl/min to achieve a response of approximately 100 RU. […] Regeneration was achieved by injecting 3 M magnesium chloride (GE Healthcare, Human Antibody Capture Kit, BR100839) for 30 seconds at a rate of 30 μl/min.

mouse MSLN-His-Avi [2] = target: T1, mouse MSLN-His-Avi; test: SPR (Biacore), mAb^2 captured via anti-human Fc, mMSLN-His-Avi in solution
Procedure: as §1

mouse MSLN-His-Avi [3] = target: T1, mouse MSLN-His-Avi; test: ratio of the two SPR KD
Procedure: as §1

cynomolgus MSLN-His-Avi = target: T2, cynomolgus MSLN-His-Avi (cynomolgus, single biotin (BirA) in the biotinylated form); test: SPR (Biacore), mAb^2 captured on Protein G, MSLN in solution injected
T2 construct: Monomeric, made in HEK293-6E; also called cMSLN-His-Avi; cyno MSLN-His-Avi
T2 chain: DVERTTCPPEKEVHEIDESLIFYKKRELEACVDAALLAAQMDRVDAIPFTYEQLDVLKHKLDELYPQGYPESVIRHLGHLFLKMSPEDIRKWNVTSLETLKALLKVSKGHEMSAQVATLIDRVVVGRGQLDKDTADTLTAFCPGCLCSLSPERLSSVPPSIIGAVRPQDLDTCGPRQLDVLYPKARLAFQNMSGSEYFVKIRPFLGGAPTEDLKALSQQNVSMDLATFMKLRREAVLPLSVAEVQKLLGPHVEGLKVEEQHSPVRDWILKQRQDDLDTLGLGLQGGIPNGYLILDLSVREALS
Procedure: (§2) Binding of the selected anti-MSLN clones in mAb² format, to recombinant human and cyno MSLN-His-Avi antigen was measured by SPR using a Biacore T200 processing unit (GE Healthcare). As previously described, it was desirable to bind more strongly to immobilised antigen than to soluble antigen. To assess the binding properties of the clones, binding kinetics to immobilised MSLN antigen were determined as described in section 2.1.2 and compared to the kinetics obtained when MSLN antigens in solution bound to captured clones.
(§3) For the capture experiments, clones in mAb² format were captured using a BIAcore sensor series S chip Protein G (GE Healthcare, 29179315). mAb² diluted in HBS-EP buffer (GE Healthcare, BR100188) containing 900 mM […] at 1 μg/ml, were injected individually on flow cell 2, 3 and 4 at 30 μl/min to achieve a response of approximately 100 RU. G1-AA/HeID1.3 was captured on flow cell 1. The recombinant human and cyno MSLN-His-Avi (section 1.1), diluted in HBS-EP buffer containing 900 mM […], were injected on flow cell 1, 2, 3 or 4 as appropriate at a concentration range of 1000 nM to 0.051 nM with 3-fold dilutions for 5 minutes at 70 μl/min and then allowed to dissociate in buffer for 5 minutes. Regeneration was achieved by injecting 10 mM glycine pH1.5 (GE Healthcare, BR100354) and surfactant P20 (GE Healthcare, BR-1000-54) for 20 seconds at a rate of 30 μl/min. Subtracted data (flow cell 2−flow cell 1, flow cell 3−flow cell 1, or flow cell 4−flow cell 1) were analysed using BIAevaluation 3.2 Software (GE Healthcare) to identify binding using the model 1:1 binding, local Rmax and with refractive index (RI) constant 0.

human MSLN-His-Avi [4] = target: T3, human MSLN-His-Avi (human, UniProt Q13421 296-598, single biotin (BirA) in the biotinylated form); test: as above
T3 construct: Monomeric, made in HEK293-6E; Used both immobilised and in solution; also called hMSLN-His-Avi; biotinylated hMSLN-His-Avi
T3 sequence (Q13421 other isoform, or with tags, fused parts or gaps): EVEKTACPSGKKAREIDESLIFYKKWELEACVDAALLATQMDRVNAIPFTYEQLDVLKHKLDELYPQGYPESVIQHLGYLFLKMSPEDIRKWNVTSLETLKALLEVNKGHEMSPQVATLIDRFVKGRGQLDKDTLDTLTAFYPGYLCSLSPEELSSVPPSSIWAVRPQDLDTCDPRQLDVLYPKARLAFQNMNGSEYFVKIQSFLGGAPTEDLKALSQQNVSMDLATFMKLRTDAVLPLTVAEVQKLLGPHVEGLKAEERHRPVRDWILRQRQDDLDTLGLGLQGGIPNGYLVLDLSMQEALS
Procedure: as §2, §3

human MSLN-His-Avi [5] = target: T3, human MSLN-His-Avi; test: SPR (Biacore), MSLN immobilised, mAb^2 injected
Procedure: (§4) Human MSLN-His-Avi was immobilised on flow cell 2 on a CM5 Series S BIAcore sensor chip (GE Healthcare, BR100530) using an amine coupling kit (GE Healthcare, BR10050) to approximately 200 response units (RU). Flow cell 1 was left blank for subtraction. HEK293-6E supernatants or purified proteins were adjusted with HBS-EP+(GE Healthcare) to approximately 50 nM anti-MSLN mAb per sample. Samples were injected over flow cell 1 and 2 for 2.5 min at 30 μl/min and then allowed to dissociate in HBS-EP buffer for 2.5 min. Regeneration was achieved by injecting 10 mM glycine pH 1.5 (GE Healthcare, BR100354) for 30 seconds at a rate of 30 μl/min. Subtracted data (flow cell 2−flow cell 1) were analysed using BIAevaluation 3.2 Software (GE Healthcare).
as §2

[6] = target: T4, cell surface human mesothelin (MSLN) (human, UniProt Q13421 296-598); test: flow cytometry (BD CantoII), NCI-H226 cells
T4 construct: whole, on cells; also called cell surface MSLN
T4 sequence (Q13421 other isoform, or with tags, fused parts or gaps limits assumed): as the sequence (Q13421 other isoform, or with tags, fused parts or gaps) above

human MSLN-His-Avi [7] = target: T3, human MSLN-His-Avi; test: ratio of the two SPR KD
Procedure: as §4, §2
as §3, with “μl/min.” for “μl/min. Subtracted data (flow cell 2−flow cell 1, flow cell 3−flow cell 1, or flow cell 4−flow cell 1) were analysed using BIAevaluation 3.2 Software (GE Healthcare) to identify binding using the model 1:1 binding, local Rmax and with refractive index (RI) constant 0.”

[8] = target: T4, cell surface human mesothelin (MSLN); test: flow cytometry (BD CantoII), NCI-H226 cells + 20 nM soluble MSLN
[9] = target: T5, OX40 on activated T cells (UniProt P43489 29-277, limits assumed); test: cell-based or functional assay
T5 sequence (looked up): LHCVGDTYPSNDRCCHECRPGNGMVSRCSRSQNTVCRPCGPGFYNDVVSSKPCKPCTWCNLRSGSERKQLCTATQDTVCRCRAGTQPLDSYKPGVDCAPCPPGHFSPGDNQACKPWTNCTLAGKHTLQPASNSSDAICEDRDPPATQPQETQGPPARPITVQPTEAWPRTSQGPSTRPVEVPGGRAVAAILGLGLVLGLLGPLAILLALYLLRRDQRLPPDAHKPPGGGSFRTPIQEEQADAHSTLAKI

[10] = target: T4, cell surface human mesothelin (MSLN); test: cell-based or functional assay
human MSLN-His-Avi [11] = target: T3, human MSLN-His-Avi; test: SPR as Example 4.1 (about 40 RU instead of 100), MSLN in solution
CD137 on CD8+ T cells = CD137 on CD8+ T cells (human, UniProt Q07011 24-255); test: cell-based or functional assay
Chain of CD137 on CD8+ T cells (Q07011 24-255): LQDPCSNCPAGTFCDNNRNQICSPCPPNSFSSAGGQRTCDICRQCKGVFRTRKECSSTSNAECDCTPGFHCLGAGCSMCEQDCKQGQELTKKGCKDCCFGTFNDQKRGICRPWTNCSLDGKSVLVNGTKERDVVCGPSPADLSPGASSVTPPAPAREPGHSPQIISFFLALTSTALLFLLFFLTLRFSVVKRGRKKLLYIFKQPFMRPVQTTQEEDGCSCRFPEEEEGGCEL

human MSLN-His-Avi [12] = target: T3, human MSLN-His-Avi; test: ratio of the two SPR KD; remark: listed apart in the source
human MSLN-His-Avi [13] = target: T3, human MSLN-His-Avi; test: SPR as Example 4.1 (about 40 RU instead of 100), MSLN immobilised

B1: FS22-063-AA/FS28m-228 mAb^2 (bispecific antibody, human IgG1, kappa, L234A L235A, V domains shown)
VH: EVQLLESGGGLVQPGGSLRLSCAASGFTFSTYFMVWVRQAPGKGLEWVSMISPKSSNTYYADSVKGRFTISRDNSKNTLYLQMNSLRAEDTAVYYCARWFTPARFDYWGQGTLVTVSS
VL: EIVLTQSPGTLSLSPGERATLSCRASQSVSSSYLAWYQQKPGQAPRLLIYGASSRATGIPDRFSGSGSGTDFTLTISRLEPEDFAVYYCQQPFPFSFTFGQGTKVEIKR
notes: LALA
- Kd (mouse MSLN-His-Avi [1]): 7.9 nM
- Kd (mouse MSLN-His-Avi [2]): 252 nM
- Ratio of KD in solution/immobilised for mouse MSLN-His-Avi (mouse MSLN-His-Avi [3]): 31.9

B2: FS22m-063-AA/FS28m-228-010 mAb^2 (bispecific antibody, human IgG1, kappa, L234A L235A, V domains shown)
VH: B1 VH with W99Y, F100H, T101I, P102S, A103P
VL: B1 VL
notes: Anti-mouse CD137 Fcab with anti-mouse MSLN Fab; LALA; also called CD137/MSLN mAb^2
- Kd (mouse MSLN-His-Avi [1]): 2.6 nM
- Kd (mouse MSLN-His-Avi [2]): 60.2 nM
- Ratio of KD in solution/immobilised for mouse MSLN-His-Avi (mouse MSLN-His-Avi [3]): 23.2

B3: FS22-053-008-AA/FS28-185 (bispecific antibody, human IgG1, kappa, L234A L235A, V domains shown)
VH: EVQLLESGGGLVQPGGSLRLSCAASGFTFTTSAMSWVRQAPGKGLEWVSRINPYEGETNYADSVKGRFTISRDNSKNTLYLQMNSLRAEDTAVYYCARGWSIATYYKSAMDYWGQGTLVTVSS
VL: EIVLTQSPGTLSLSPGERATLSCRASQSVSSSYLAWYQQKPGQAPRLLIYGASSRATGIPDRFSGSGSGTDFTLTISRLEPEDFAVYYCQQSSYSAPVTFGQGTKVEIKR
- Kd (cynomolgus MSLN-His-Avi): 362 nM
- Kd (human MSLN-His-Avi [4]): 452 nM
- Kd (human MSLN-His-Avi [5]): 30.1 nM
- EC50 [6]: 16.3 nM
- Ratio of KD in solution/immobilised for human MSLN-His-Avi (human MSLN-His-Avi [7]): 15
- EC50 [8]: 14.3 nM

Other lines, results leading:

- T cell activation assay (IL-2 release), NCI-H226 cells for crosslinking: EC50 [9]: 0.11 nM
- T cell activation assay (IL-2 release), NCI-H226 cells for crosslinking: EC50 [10]: 0.11 nM
B4: OX40 (FS20-022-049)/FS28-256-271 mAb^2 (bispecific antibody, human IgG1, kappa, L234A L235A)
heavy: EVQLLESGGGLVQPGGSLRLSCAASGFTFTHTYMSWVRQAPGKGLEWVSAISPTYSTTNYADSVKGRFTISRDNNKNTLYLQMNSLRAEDTAVYYCARYNAYHAALDYWGQGTLVTVSSASTKGPSVFPLAPSSKSTSGGTAALGCLVKDYFPEPVTVSWNSGALTSGVHTFPAVLQSSGLYSLSSVVTVPSSSLGTQTYICNVNHKPSNTKVDKKVEPKSCDKTHTCPPCPAPEAAGGPSVFLFPPKPKDTLMISRTPEVTCVVVDVSHEDPEVKFNWYVDGVEVHNAKTKPREEQYNSTYRVVSVLTVLHQDWLNGKEYKCKVSNKALPAPIEKTISKAKGQPREPQVYTLPPSRDEYWDQEVSLTCLVKGFYPSDIAVEWESNGDEQFAYKTTPPVLDSDGSFFLYSKLTVDQYRWNPADYFSCSVMHEALHNHYTQKSLSLSPG
light: EIVLTQSPGTLSLSPGERATLSCRASQSVSSSYLAWYQQKPGQAPRLLIYGASSRATGIPDRFSGSGSGTDFTLTISRLEPEDFAVYYCQQTVPYPYTFGQGTKVEIKRTVAAPSVFIFPPSDEQLKSGTASVVCLLNNFYPREAKVQWKVDNALQSGNSQESVTEQDSKDSTYSLSSTLTLSKADYEKHKVYACEVTHQGLSSPVTKSFNRGEC

- Kd (human MSLN-His-Avi [11]): 18.2 nM
- CD8+ T cell activation assay (IL-2 release), NCI-H226 cells for crosslinking: EC50 (CD137 on CD8+ T cells): 0.096 nM
- CD8+ T cell activation assay (IL-2 release), NCI-H226 cells for crosslinking: EC50 [10]: 0.096 nM
- Ratio of KD in solution/immobilised for human MSLN-His-Avi (human MSLN-His-Avi [12]): 3
- Kd (human MSLN-His-Avi [13]): 5.9 nM
B5: FS28-256-271 (in CD137 mAb^2 format) (bispecific antibody, V domains shown)
VH: EVQLLESGGGLVQPGGSLRLSCAASGFTFTHTYMSWVRQAPGKGLEWVSAISPTYSTTNYADSVKGRFTISRDNNKNTLYLQMNSLRAEDTAVYYCARYNAYHAALDYWGQGTLVTVSS
VL: EIVLTQSPGTLSLSPGERATLSCRASQSVSSSYLAWYQQKPGQAPRLLIYGASSRATGIPDRFSGSGSGTDFTLTISRLEPEDFAVYYCQQTVPYPYTFGQGTKVEIK

Reference: patent US20220267421A1 (INVOX PHARMA, published 2022)
